Results taken from article PMC4298681 (The Journal of Cell Biology, 2015).

Molecular target: native Arp2/3 complex purified from Acanthamoeba castellanii (Acanthamoeba castellanii, UniProt P53487 1-388)
Test: pull-down

B1: GST-NIK 340–500 (domain or fragment)
chain: SSIVNVPGESTLRRDFLRLQQENKERSEALRRQQLLQEQQLREQEEYKRQLLAERQKRIEQQKEQRRRLEEQQRREREARRQQEREQRRREQEEKRRLEELERRRKEEEERRRAEEEKRRVEREQEYIRRQLEEEQRHLEILQQQLLQEQAMLLHDHRRPH
B1 showed a Kd of about 213 nM.
